{
  "source": "the RNAGym collection of RNA variant scans (doi:10.1093/molbev/msab373)",
  "parents": {"B1": {"name": "Azoarcus group I ribozyme (parent)", "chain": "GUGCCUUGCGCCGGGAAACCACGCAAGGGAUGGUGUCAAAUUCGGCGAAACCUAAGCGCCCGCCCGGGCGUAUGGCAACGCCGAGCCAAGCUUCGGCGCCUGCGCCGAUGAAGGUGUAGAGACUAGACGGCACCCACCUAAGGCAAACGCUAUGGUGAAGGCAUAGUCCAGGGAGUGGCGAAAGUCACACAAACCGG"}},
  "data": [
    {"variants_of": "B1", "test": "reverse-splicing fitness (ratio to wild type); higher = more active; in vitro selection; Mg2+ level not given", "summary_of_the_method": "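An in vitro group I ribozyme library with randomized positions was T7-transcribed and gel-purified. In triplicate, 10 pmol RNA in EPPS pH 7.5 was reacted with 50 pmoles of a 30-nt RNA substrate for 1 h at 37 °C across several added MgCl2 levels (1–48 mM), then stopped with EDTA. Products were reverse transcribed from a substrate-complementary primer, PCR-amplified and sequenced (HiSeq 4000). Fitness is a variant's read proportion after selection over that before, normalised to wild type.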", "values": [
      {"variant": "C82U A111U A145C C150A C169A U176A", "reverse-splicing fitness": 0.00998},
      {"variant": "C82U A111U A145C C150A C169A U176G", "reverse-splicing fitness": 0.00585},
      {"variant": "C82U A111U A145C C150A C169A U176C", "reverse-splicing fitness": 0.00618},
      {"variant": "C82U A111U A120U A145U C150A U176C", "reverse-splicing fitness": 0.00477},
      {"variant": "C82U A111U A120U A145U C150A U176G", "reverse-splicing fitness": 0.00252},
      {"variant": "C82U A111U A120U A145U C150A U176A", "reverse-splicing fitness": 0.00357},
      {"variant": "C82U A111U A145G C150U U176G", "reverse-splicing fitness": 0.0188},
      {"variant": "C82U A111U A145G C150U U176C", "reverse-splicing fitness": 0.12},
      {"variant": "C82U A111U A145G C150U U176A", "reverse-splicing fitness": 0.0765},
      {"variant": "C82U A111U A145G C150G U176G", "reverse-splicing fitness": 0.00676},
      {"variant": "C82U A111U A145G C150G U176C", "reverse-splicing fitness": 0.0196},
      {"variant": "C82U A111U A145G C150G U176A", "reverse-splicing fitness": 0.0103},
      {"variant": "C82U A111U A120U C150A C169A U176C", "reverse-splicing fitness": 0.00306},
      {"variant": "C82U A111U A120U C150A C169A U176G", "reverse-splicing fitness": 0.00224},
      {"variant": "C82U A111U A120U C150A C169A U176A", "reverse-splicing fitness": 0.00372},
      {"variant": "C82U A111U A145U C150A", "reverse-splicing fitness": 0.0273},
      {"variant": "C82U A111U A120U A145G C150A C169A U176A", "reverse-splicing fitness": 0.0063},
      {"variant": "C82U A111U A120U A145G C150A C169A U176C", "reverse-splicing fitness": 0.00382},
      {"variant": "C82U A111U A120U A145G C150A C169A U176G", "reverse-splicing fitness": 0.00245},
      {"variant": "C82U A111U A120U A145G U176A", "reverse-splicing fitness": 0.00732},
      {"variant": "C82U A111U A120U A145G U176G", "reverse-splicing fitness": 0.00331},
      {"variant": "C82U A111U A120U A145G U176C", "reverse-splicing fitness": 0.0112},
      {"variant": "C82U A111U A145C U176A", "reverse-splicing fitness": 0.0966},
      {"variant": "C82U A111U A145C U176C", "reverse-splicing fitness": 0.141},
      {"variant": "C82U A111U A145C U176G", "reverse-splicing fitness": 0.0247},
      {"variant": "C82U A111U A145G C150G C169A", "reverse-splicing fitness": 0.00815},
      {"variant": "C82U A111U A145G C150G C169G", "reverse-splicing fitness": 0.00754},
      {"variant": "C82U A111U A145G C150G C169U", "reverse-splicing fitness": 0.00863},
      {"variant": "C82U A111U A120U A145U C150G C169G U176G", "reverse-splicing fitness": 0.00209},
      {"variant": "C82U A111U A120U A145U C150G C169G U176C", "reverse-splicing fitness": 0.00288},
      {"variant": "C82U A111U A120U A145U C150G C169G U176A", "reverse-splicing fitness": 0.0029},
      {"variant": "C82U A111U A120U A145U C150A C169G U176C", "reverse-splicing fitness": 0.00231},
      {"variant": "C82U A111U A120U A145U C150A C169G U176A", "reverse-splicing fitness": 0.00311},
      {"variant": "C82U A111U A120U A145U C150A C169G U176G", "reverse-splicing fitness": 0.00192},
      {"variant": "C82U A111U A120U A145G C169G U176G", "reverse-splicing fitness": 0.00146},
      {"variant": "C82U A111U A120U A145G C169G U176C", "reverse-splicing fitness": 0.0035},
      {"variant": "C82U A111U A120U A145G C169G U176A", "reverse-splicing fitness": 0.00271},
      {"variant": "C82U A111U A120U A145U C150A C169U U176G", "reverse-splicing fitness": 0.00195},
      {"variant": "C82U A111U A120U A145U C150A C169U U176A", "reverse-splicing fitness": 0.00233},
      {"variant": "C82U A111U A120U A145U C150A C169U U176C", "reverse-splicing fitness": 0.00234},
      {"variant": "C82U A111U A145G C150A C169U U176C", "reverse-splicing fitness": 0.0133},
      {"variant": "C82U A111U A145G C150A C169U U176A", "reverse-splicing fitness": 0.016},
      {"variant": "C82U A111U A145G C150A C169U U176G", "reverse-splicing fitness": 0.00658},
      {"variant": "C82U A111U A120U C150G U176C", "reverse-splicing fitness": 0.005},
      {"variant": "C82U A111U A120U C150G U176G", "reverse-splicing fitness": 0.00237},
      {"variant": "C82U A111U A120U C150G U176A", "reverse-splicing fitness": 0.00352},
      {"variant": "C82U A111U A145U C150A C169A", "reverse-splicing fitness": 0.0089},
      {"variant": "C82U A111U A145U C150A C169G", "reverse-splicing fitness": 0.00727},
      {"variant": "C82U A111U A120U C150G C169U", "reverse-splicing fitness": 0.00478},
      {"variant": "C82U A111U A120U C150G C169G", "reverse-splicing fitness": 0.00584},
      {"variant": "C82U A111U A120U C150G C169A", "reverse-splicing fitness": 0.00657},
      {"variant": "C82U A111U A120U A145G C150G C169G U176G", "reverse-splicing fitness": 0.00365},
      {"variant": "C82U A111U A120U A145G C150G C169G U176A", "reverse-splicing fitness": 0.00749},
      {"variant": "C82U A111U A120U A145G C150G C169G U176C", "reverse-splicing fitness": 0.00477},
      {"variant": "C82U A111U A145G C150A C169G U176G", "reverse-splicing fitness": 0.00627},
      {"variant": "C82U A111U A145G C150A C169G U176C", "reverse-splicing fitness": 0.0254},
      {"variant": "C82U A111U A145G C150A C169G U176A", "reverse-splicing fitness": 0.0146},
      {"variant": "C82U A111U A145G", "reverse-splicing fitness": 0.332},
      {"variant": "C82U A111U A145U", "reverse-splicing fitness": 0.329},
      {"variant": "C82U A111U A145C", "reverse-splicing fitness": 0.295},
      {"variant": "C82U A111U A120U C169A U176G", "reverse-splicing fitness": 0.00193},
      {"variant": "C82U A111U A120U C169A U176C", "reverse-splicing fitness": 0.00317},
      {"variant": "C82U A111U A120U C169A U176A", "reverse-splicing fitness": 0.00285},
      {"variant": "C82U A111U A145C C150A U176A", "reverse-splicing fitness": 0.0116},
      {"variant": "C82U A111U A145C C150A U176G", "reverse-splicing fitness": 0.00625},
      {"variant": "C82U A111U A145C C150A U176C", "reverse-splicing fitness": 0.013},
      {"variant": "C82U A111U A120U A145G C150U C169U U176C", "reverse-splicing fitness": 0.00399},
      {"variant": "C82U A111U A120U A145G C150U C169U U176A", "reverse-splicing fitness": 0.00396},
      {"variant": "C82U A111U A120U A145G C150U C169U U176G", "reverse-splicing fitness": 0.00209},
      {"variant": "C82U A111U A120U C150U C169U U176G", "reverse-splicing fitness": 0.00244},
      {"variant": "C82U A111U A120U C150U C169U U176A", "reverse-splicing fitness": 0.00527},
      {"variant": "C82U A111U A120U C150U C169U U176C", "reverse-splicing fitness": 0.0041},
      {"variant": "C82U A111U A145C C169G U176C", "reverse-splicing fitness": 0.0126},
      {"variant": "C82U A111U A145C C169G U176G", "reverse-splicing fitness": 0.00539},
      {"variant": "C82U A111U A145C C169G U176A", "reverse-splicing fitness": 0.0234},
      {"variant": "C82U A111U A120U A145U C150G", "reverse-splicing fitness": 0.00727},
      {"variant": "C82U A111U A120U A145U C150U", "reverse-splicing fitness": 0.0175},
      {"variant": "C82U A111U A120U A145U C150A", "reverse-splicing fitness": 0.00625},
      {"variant": "C82U A111U A145G C169U U176A", "reverse-splicing fitness": 0.0135},
      {"variant": "C82U A111U A145G C169U U176C", "reverse-splicing fitness": 0.0145},
      {"variant": "C82U A111U A145G C169U U176G", "reverse-splicing fitness": 0.0055},
      {"variant": "C82U A111U A145C C150A C169G U176A", "reverse-splicing fitness": 0.0228},
      {"variant": "C82U A111U A145C C150A C169G U176C", "reverse-splicing fitness": 0.0138}
    ]}
  ]
}
